The text below walks through data of patent US20230144436A1 (DYNE THERAPEUTICS, published 2023).

In test [1] the target is T1, human transferrin receptor 1 (human, UniProt P02786 89-760, limits assumed).
T1 construct: also called hTfR1; huTfR1
The test can be described thus: Carterra LSA SPR array, IgG captured on anti-IgG lawn, hTfR1 as analyte, 25 C, 1:1 Langmuir fit. Here is the method: Selected anti-TfR1 antibodies were tested for their binding affinity to human TfR1 for measurement of Ka (association rate constant), Kd (dissociation rate constant), and KD (affinity). […] The binding experiment was performed on Carterra LSA at 25 C. An anti-mouse IgG and anti-human IgG antibody “lawn” was prepared on a HC30M chip by amine coupling. 59 IgGs (58 mouse mAbs and 1 human mAb) were captured on the chip. Dilution series of hTfR1, cyTfR1, and hTfR2 were injected to the chip for binding (starting from 1000 nM, 1:3 dilution, 8 concentrations).
Binding data were referenced by subtracting the responses from a buffer analyte injection and globally fitting to a 1:1 Langmuir binding model for estimate of Ka (association rate constant), Kd (dissociation rate constant), and KD (affinity) using the Carterra™ Kinetics software. 5-6 concentrations were used for curve fitting.
Target sequence in this assay (P02786 89-760 limits assumed): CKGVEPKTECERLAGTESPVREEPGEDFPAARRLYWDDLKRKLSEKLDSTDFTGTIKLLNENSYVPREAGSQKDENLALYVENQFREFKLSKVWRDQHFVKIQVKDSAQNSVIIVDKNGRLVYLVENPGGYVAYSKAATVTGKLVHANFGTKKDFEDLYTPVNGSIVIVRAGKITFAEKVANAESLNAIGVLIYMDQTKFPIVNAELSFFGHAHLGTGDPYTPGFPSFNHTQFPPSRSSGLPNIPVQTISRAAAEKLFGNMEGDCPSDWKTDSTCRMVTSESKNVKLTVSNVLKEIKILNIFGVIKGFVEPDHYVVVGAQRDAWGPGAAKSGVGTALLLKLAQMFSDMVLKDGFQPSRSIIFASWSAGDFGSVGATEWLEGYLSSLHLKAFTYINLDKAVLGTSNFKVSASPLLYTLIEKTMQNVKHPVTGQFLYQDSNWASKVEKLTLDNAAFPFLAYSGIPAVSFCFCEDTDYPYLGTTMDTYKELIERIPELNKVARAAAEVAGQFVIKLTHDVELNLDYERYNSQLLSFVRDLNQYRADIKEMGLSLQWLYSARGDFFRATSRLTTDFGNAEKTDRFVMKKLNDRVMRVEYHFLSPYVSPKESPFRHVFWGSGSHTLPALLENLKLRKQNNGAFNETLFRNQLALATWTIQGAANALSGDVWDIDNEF

The target of test [2] is T1, human transferrin receptor 1. The test can be described thus: ELISA on human TfR1. Here is the method:
(§1) The binding activity of selected formats were tested against human TfR1, cyno TfR1, and human TfR2 in an ELISA assay.
For orientation: An ELISA detects its analyte on a solid surface through an enzyme-linked reagent.

For test [3] the target is unchanged. The test can be described thus: average KD, antibody alone; method not given.
Target sequence in this assay (P02786 89-760 limits assumed): as above
For test [4], the target named is T2, cynomolgus monkey transferrin receptor 1 (cynomolgus monkey (Macaca fascicularis), UniProt Q5RDH6 89-760 (Pongo abelii entry), limits assumed).
T2 construct: also called cyTfR1; Cyno TfR1
T2 chain: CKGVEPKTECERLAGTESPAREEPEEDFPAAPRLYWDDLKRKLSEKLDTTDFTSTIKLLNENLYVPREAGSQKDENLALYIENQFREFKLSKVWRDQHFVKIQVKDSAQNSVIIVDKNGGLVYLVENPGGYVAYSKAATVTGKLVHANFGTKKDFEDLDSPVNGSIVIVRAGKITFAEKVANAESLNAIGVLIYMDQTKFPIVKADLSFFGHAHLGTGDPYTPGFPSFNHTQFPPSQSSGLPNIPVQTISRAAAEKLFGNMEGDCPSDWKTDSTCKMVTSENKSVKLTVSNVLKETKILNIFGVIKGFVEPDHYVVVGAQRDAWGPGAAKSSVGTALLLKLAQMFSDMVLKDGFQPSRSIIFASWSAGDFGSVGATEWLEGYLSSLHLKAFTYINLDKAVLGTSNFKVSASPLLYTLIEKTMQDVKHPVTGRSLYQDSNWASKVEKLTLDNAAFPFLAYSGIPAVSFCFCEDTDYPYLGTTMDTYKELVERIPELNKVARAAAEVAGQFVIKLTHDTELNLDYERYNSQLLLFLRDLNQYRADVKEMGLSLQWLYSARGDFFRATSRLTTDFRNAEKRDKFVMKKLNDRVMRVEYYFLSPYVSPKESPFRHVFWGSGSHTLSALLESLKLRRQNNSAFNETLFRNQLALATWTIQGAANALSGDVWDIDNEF
The test can be described thus: average KD, antibody alone; method not given.

The target in test [5] is T2, cynomolgus monkey transferrin receptor 1. The experiment in a line: ELISA on cyno TfR1. As to the method:
as §1

For test [6], the target named is T3, human transferrin receptor 2 (human, UniProt Q9UP52 105-801, limits assumed).
T3 construct: also called human TfR2; hTfR2
T3 sequence (looked up): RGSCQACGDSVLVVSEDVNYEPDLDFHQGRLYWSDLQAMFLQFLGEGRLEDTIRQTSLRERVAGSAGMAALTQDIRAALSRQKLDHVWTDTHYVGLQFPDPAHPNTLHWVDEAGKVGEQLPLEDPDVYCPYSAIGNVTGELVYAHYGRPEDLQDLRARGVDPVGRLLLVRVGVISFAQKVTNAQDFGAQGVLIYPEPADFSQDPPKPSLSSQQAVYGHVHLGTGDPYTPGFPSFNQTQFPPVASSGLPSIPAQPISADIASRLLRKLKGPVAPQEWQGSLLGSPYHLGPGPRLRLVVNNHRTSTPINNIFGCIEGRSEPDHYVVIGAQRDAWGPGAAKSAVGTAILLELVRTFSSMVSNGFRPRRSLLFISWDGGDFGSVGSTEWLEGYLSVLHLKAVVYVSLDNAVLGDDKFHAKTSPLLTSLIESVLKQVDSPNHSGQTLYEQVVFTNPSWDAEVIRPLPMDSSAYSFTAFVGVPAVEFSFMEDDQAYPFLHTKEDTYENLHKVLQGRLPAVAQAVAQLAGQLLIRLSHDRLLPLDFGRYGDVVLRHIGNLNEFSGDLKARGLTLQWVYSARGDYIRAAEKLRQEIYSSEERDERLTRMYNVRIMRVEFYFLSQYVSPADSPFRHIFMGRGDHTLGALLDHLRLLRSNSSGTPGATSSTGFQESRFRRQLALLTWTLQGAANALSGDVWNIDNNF
The experiment in a line: ELISA.

In test [7] the target is T4, cynomolgus monkey transferrin receptor 1 (cynomolgus monkey, UniProt Q5RDH6 89-760 (Pongo abelii entry), limits assumed).
T4 construct: also called cTfR1; cyTfR1
T4 chain: T2 chain
The experiment in a line: ELISA.

In test [8] the target is T5, human transferrin receptor 1 (human, UniProt P02786 89-760, limits assumed).
T5 construct: also called hTfR1; human TfR1
The experiment in a line: ELISA.

B1: Anti-TfR antibody 15G11 (antibody, V domains shown)
VH: QVQLQQPGAELVKPGASVKLSCKASGYTFTSYWMHWVKQRPGQGLEWIGEINPTNGRTNYIEKFKSKATLTVDKSSSTAYMQLSSLTSEDSAVYYCARGTRAYHYWGQGTSVTVSS
VL: DIQMTQSPASLSVSVGETVTITCRASDNLYSNLAWYQQKQGKSPQLLVYDATNLADGVPSRFSGSGSGTQYSLKINSLQSEDFGTYYCQHFWGTPLTFGAGTKLELK
notes: Known control antibody; It was captured as an IgG on the Carterra chip; also called ctrl-15G11; 15G11 (control)
For B1, the dissociation constant Kd (usually the constant that tells how readily two partners part at equilibrium) was found to be 0.283 nM in test [1], 0.8 nM in test [3] and 1 nM in test [4]. In addition, the EC50 (in general, the concentration that produces a half-maximal response) in test [2] is 0.589 nM; in test [5] it was 1.08 nM.

B2: 15G11 (antibody, V domains shown)
VH: B1 VH
VL: B1 VL
notes: Known anti-TfR1 antibody used as control; also called control antibody 15G11; ctrl-15G11
In the case of B2, in test [6], the binding result is given as “no binding”.

B3: 10-H2 (antibody, V domains shown)
VH: EVQLVESGGDLVKPGGSLKLSCAASGFTFSDYGMHWVRQGPEKGLEWVAYINSGSSTIYYADTVKGRFTISRDNAKNTLFLQMTSLRSEDTAMYYCARPGDYDNYAMDYWGQGTSVTVSS
VL: DIVMTQSHKFLSTSVGDRVSITCKASQDVSVAVAWYQQKPGQSPKLLIYWAYTRHTGVPDRFTGSGSGTEYTLTISSVQAEDLALYYCQQHYNTPPWTFGGGTKLEIK
notes: Tested as a mouse monoclonal IgG; also called 10-H02
Turning to B3, the Kd in test [1] worked out at 2.72 nM; in test [3], 2.72 nM; in test [4] it was 12.4 nM. Also, the on-rate constant (kon) (in general, the rate constant with which the complex forms) in test [1] was found to be 126000 M⁻¹ s⁻¹.

B4: 2-H19 (antibody, V domains shown)
VH: EVQLQQSGAELVRSGASVKLSCTASGFNIKDYYMHWVKQRPEQGLEWIGWIDPESGDTEYAPKFQGRATMTADTSSNTAYMQLSSLTSEDTAVYYCYGHDYRVDCWGQGTSVTVSS
VL: DVVMTQTPLSLPVSLGDQASISCRSSQSLVHSNGNTYLHWYLQKPGQSPKLLIYKVSNRFSGVPDRFSGSGSGTDFTLKISRVEAEDLGVYFCSQSTHIPWTFGGGTKLEIK
notes: Tested as a mouse monoclonal IgG
Turning to B4, the dissociation constant Kd is 2.06 nM in test [1], 2.06 nM in test [3] and 5.75 nM in test [4]. This molecule had an on-rate (kon) in test [1] of 222000 M⁻¹ s⁻¹.

B5: anti-TfR antibody shown in Table 7, unconjugated (Example 18) (antibody, V domains shown)
VH: QVQLVQSGAEVKKPGESLKISCKGSGYSFTSYWIGWVRQMPGKGLEWMGIIYPGDSDTRYSPSFQGQVTISADKSISTAYLQWSSLKASDTAMYYCARFPYDSSGYYSFDYWGQGTLVTVSS
VL: not shown
notes: also called anti-TfR alone; unconjugated anti-TfR
Regarding B5, the figures for the concentration for a half-maximal effect (EC50) in test [7] and in test [8] were 33.6 nM and 26.6 nM, respectively.

B6: anti-TfR FAB, Table 7 clone (Fab, V domains shown)
VH: B5 VH
VL: not shown
In the case of B6, the binding result in test [6] is listed as “no binding”.

B7: anti-TfR hIgG1 (with L234A/L235A mutations in HC constant region), Table 7 clone (antibody, V domains shown)
VH: B5 VH
VL: not shown
notes: Tied by the description 'anti-TfR IgG heavy chain (with human IgG1 constant region mutant L234A/L235A)'
Regarding B7, the binding result in test [6] is on record as “no binding”.

B8: anti-TfR antibody shown in Table 7 conjugated to a DMPK-targeting oligonucleotide (control DMPK-ASO) (antibody, V domains shown)
VH: B5 VH
VL: not shown
notes: Antibody-oligonucleotide conjugate; For the uptake assay the antibody was conjugated to several different DMPK-targeting oligonucleotides and labeled with Cypher5e; also called oligonucleotide-conjugated anti-TfR; anti-TfR Fab conjugates
With B8, the values for the EC50 in test [7] and in test [8] were 5.3 nM and 8.2 nM, respectively.
